Laboratory results from patent US20240082313A1, “PHARMACEUTICAL COMPOSITIONS AND THEIR METHODS OF USE” (The Trustees of Indiana University, priority 2021, published 2024).

How the values were obtained:
[1] = system: EO771 mammary tumor cells; experiment: TRANSWELL invasion assay; format: cell-based, mouse; details: inhibitor applied with iTS CM
Description: (§1) Invasion assay. The invasion capacity of cancer cells was determined using a 24-well plate, TRANSWELL® chambers (Thermo Fisher Scientific, Waltham, MA, USA) with […] pore size and MATRIGEL™. Cell invasion was measured in TRANSWELL® chambers with a coating including MATRIGEL™ (100 μg/ml). The cells in 200 μL serum-free DMEM were placed on the upper chamber and 800 μL iTS CM was added in the lower chamber. After 24 h, the cells that had invaded the lower side of the membrane were stained with Crystal Violet. At least five randomly chosen images were taken under a microscope, and the average number of stained cells that represented the relative invasion was determined.

[2] = system: EO771 mammary tumor cells; experiment: EdU assay; format: cell-based, mouse; details: inhibitor applied with iTS CM
Description: (§2) EdU assays. Two thousand cells were seeded in 96-well plates on day 1, CM was added on day 2, and cellular proliferation was examined using a fluorescence-based cell proliferation kit (CLICK-IT™ EdU ALEXA FLUOR™ 488 Imaging Kit; Thermo-Fisher, Waltham, MA, USA). After fluorescent labeling, the number of fluorescently labeled cells were counted and the ratio to the total number of cells was determined.
(§3) EdU assay. Using a procedure previously reported, approximately 1,000 cells were seeded in 96-well plates on day 1. CM was added on day 2 and cellular proliferation was examined with a fluorescence-based cell proliferation kit (CLICK-IT™ EdU ALEXA FLUOR™ 488 Imaging Kit; Thermo-Fisher, Waltham, MA, USA) on day 4. After fluorescent labeling, the number of fluorescently labeled cells was counted and the ratio to the total number of cells was determined.

[3] = system: EO771 mammary tumor cells; experiment: Tumor selectivity from MTT-based viability (tumor vs non-tumor cells); format: cell-based, mouse; details: tumor cells EO
Source text: (§4) Variations in tumor selectivity among the predicted tumor-suppressing proteins. Tumor-suppressing proteins may inhibit the progression of tumor cells but not inhibit the progression of non-tumor cells. Using the MTT-based viability, tumor selectivity was defined as a ratio of (reduction in MTT-based viability of tumor cells) to (reduction in MTT-based viability of non-tumor cells). The tumor selectivity may be above one to remove tumor cells and a larger value may signify a reduction in the inhibition of the growth of non-tumor cells. The tumor selectivity was determined using three tumor cells (4T1.2 mouse mammary tumor cells, EO771 mammary tumor cells, and MDA-MB-231 breast cancer cells) and three non-tumor cells (adipose cells, MLO-A5 osteocytes, and murine MSCs). […] Table 2 provides the tumor selectivity of 4T1.2 Oct4 CM, 4T1.2 c-Myc CM, and 10 tumor-suppressing protein candidates.

[4] = system: 4T1.2 cells; experiment: Western blot analysis; format: cell-based, mouse; details: for level of Kdm3a: 4T1.2 cells; for Lrp5, MMP9, Runx2, TGFβ, and Snail: recombinant protein applied extracellularly to 4T1.2 cells
Description: Western blot analysis. Cultured cells were lysed in a radio-immunoprecipitation assay (RIPA) buffer and proteins were fractionated by 10-15% SDS gels and electro-transferred to polyvinylidene difluoride (PVDF) transfer membranes (Millipore, Billerica, MA, USA). The membrane was incubated overnight with primary antibodies and then with secondary antibodies conjugated with horseradish peroxidase (Cell Signaling, Danvers, MA, USA). Antibodies against c-Myc, Oct4, Sox2, Klf4, Lrp5, Runx2, Snail, TGFβ, Eno1, Eef2, vinculin (Cell Signaling, Danvers, MA, USA), MMP9, NFATc1, cathepsin K (Santa Cruz, Dallas, TX, USA), TRAIL (Novus, Centennial, CO, USA), p53 (Invitrogen, Carlsbad, CA, USA), Hsp90ab1 (Abcam, Cambridge, UK), Kdm3a (Thermo-Fisher Scientific, Waltham, MA, USA) and β-actin as a control (Sigma, St. Louis, MO, USA) were employed. The level of proteins was determined using a SUPERSIGNAL™ west femto maximum sensitivity substrate (Thermo-Fisher Scientific, Waltham, MA, USA), and a luminescent image analyzer (LAS-3000, Fuji Film, Tokyo, Japan) was used to quantify signal intensities.

[5] = system: MDA-MB-231 breast cancer cells; experiment: Tumor selectivity from MTT-based viability (tumor vs non-tumor cells); format: cell-based, human
Source text: as §4

[6] = system: adipose-derived MSCs; experiment: MTT-based viability of non-tumor cells; format: cell-based, human
Source text: as §4

[7] = system: 4T1.2 cells; experiment: TRANSWELL invasion assay; format: cell-based, mouse
Description: TRANSWELL® invasion assay. In a TRANSWELL® invasion assay, approximately 5×10^4 cells in 200 μL serum-free DMEM were placed on the upper TRANSWELL® chamber (Thermo Fisher Scientific, Waltham, MA, USA) with MATRIGEL™ (100 μg/ml), and 800 μL of CM was added in the lower chamber. After 48 h, the cells that had invaded the lower side of the membrane were stained with Crystal Violet. At least five randomly chosen images were taken, and the average number of stained cells was determined.

[8] = system: 4T1.2 mouse mammary tumor cells; experiment: Tumor selectivity from MTT-based viability (tumor vs non-tumor cells); format: cell-based
Source text: as §4

[9] = system: TRAMP prostate tumor cells; experiment: EdU assay; format: cell-based; details: EdU-based
Description: as §2

[10] = system: TRAMP prostate tumor cells; experiment: TRANSWELL invasion assay; format: cell-based
Description: as §1

[11] = system: EO771 tumor cells; experiment: MTT-based viability; format: cell-based, mouse
[12] = system: EO771 mammary tumor cells; experiment: Wound-healing scratch assay; format: cell-based, mouse; details: EO771 cells
Description: Two-dimensional motility assay. A wound-healing scratch motility assay was performed to measure 2-dimensional cell motility. Cells were seeded in 12-well plates, after cell attachment, a plastic pipette tip was used to scratch a gap on the cell layer. Images of the cell-free scratch zone were obtained via an inverted microscope at 0 h, and the areas newly occupied with cells were determined 48 h after scratching. The areas were quantified with Image J (National Institutes of Health, Maryland, USA).
Scratch assay. A wound-healing scratch assay was conducted to evaluate 2-dimensional migratory behavior. Approximately 4×10^5 cells were seeded in 12-well plates. After cell attachment, a plastic pipette tip was used to scratch a gap on the cell layer. After the removal of the floating cells, CM was added. Images of the cell-free scratch zone were collected at 0 h, and the areas newly occupied with cells were determined 24-48 h after scratching. The areas were quantified with IMAGE J™ (National Institutes of Health, Bethesda, MD, USA).

[13] = system: 4T1.2 cells; experiment: EdU assay; format: cell-based, mouse
Description: as §3

[14] = system: PANC-1 pancreatic tumor cells; experiment: TRANSWELL invasion assay; format: cell-based, human; details: PANC-1 cells
Description: as §1

[15] = system: EO771 cells; experiment: Western blot analysis; format: cell-based, mouse
Description: Western blot analysis. Cultured cells were lysed in a radio-immunoprecipitation assay buffer with protease inhibitors (Santa Cruz Biotechnology, Santa Cruz, CA, USA) and phosphatase inhibitors (Calbiochem, Billerica, MA, USA). After cell lysis, proteins were fractionated by 10-15% SDS gels and electro-transferred to polyvinylidene difluoride (“PVDF”) transfer membranes (Millipore, Billerica, MA, USA). After blocking 1 h with a blocking buffer (Bio-Rad), the membrane was incubated overnight with primary antibodies and then with secondary antibodies conjugated with horseradish peroxidase for 45 min (Cell Signaling, Danvers, MA, USA). Antibodies against β-catenin, cleaved-caspase 3, Runx2, Snail, Enolase-1 (Cell Signaling, Danvers, MA, USA), MMP9 (Santa Cruz, Dallas, TX, USA), TRAIL (Novus, Centennial, CO, USA), p53 (Invitrogen, Carlsbad, CA, USA), and β-actin as a control (Sigma, St. Louis, MO, USA), were employed. The level of proteins was determined using a SUPERSIGNAL™ west femto maximum sensitivity substrate (Thermo Scientific, Waltham, MA, USA), and a luminescent image analyzer (LAS-3000, Fuji Film, Tokyo, Japan) was used to quantify signal intensities.

[16] = system: PANC-1 pancreatic tumor cells; experiment: EdU assay; format: cell-based, human; details: PANC-1 cells, EdU-based
Description: as §2

Nc1cccc2c1C(=O)N(C1CCC(=O)NC1=O)C2=O (centres unmarked) [Pomalidomide]
inhibitory effect of β-catenin-overexpressing iTS CM on invasion [1]: interfered with the inhibitory effect | inhibitory effect of β-catenin-overexpressing iTS CM on proliferation [2]: interfered with the inhibitory effect

Hsp90ab1: heat shock protein 90 alpha family class B member 1 recombinant protein
Tumor selectivity ([3]; non-tumor cells A5): 1.55 | Tumor selectivity ([3]; non-tumor cells MSC): 2.65 | level of Kdm3a [4]: reduced | Lrp5, MMP9, Runx2, TGFβ, and Snail [4]: downregulated | Tumor selectivity ([5]; non-tumor cells A5): 1.02 | Tumor selectivity ([5]; non-tumor cells MSC): 1.74 | MTT-based viability of non-tumor cells [6]: elevated | TRANSWELL invasion [7]: reduced | Tumor selectivity ([8]; non-tumor cells A5): 1.68 | Tumor selectivity ([8]; non-tumor cells MSC): 2.86

B1: enolase 1: enolase 1 recombinant protein (protein, UniProt P17182 2-434, looked up)
Alpha-enolase: SILRIHAREIFDSRGNPTVEVDLYTAKGLFRAAVPSGASTGIYEALELRDNDKTRFMGKGVSQAVEHINKTIAPALVSKKVNVVEQEKIDKLMIEMDGTENKSKFGANAILGVSLAVCKAGAVEKGVPLYRHIADLAGNPEVILPVPAFNVINGGSHAGNKLAMQEFMILPVGASSFREAMRIGAEVYHNLKNVIKEKYGKDATNVGDEGGFAPNILENKEALELLKTAIAKAGYTDQVVIGMDVAASEFYRSGKYDLDFKSPDDPSRYITPDQLADLYKSFVQNYPVVSIEDPFDQDDWGAWQKFTASAGIQVVGDDLTVTNPKRIAKAASEKSCNCLLLKVNQIGSVTESLQACKLAQSNGWGVMVSHRSGETEDTFIADLVVGLCTGQIKTGAPCRSERLAKYNQILRIEEELGSKAKFAGRSFRNPLAK
proliferation [9]: inhibited | invasion [10]: inhibited | MTT-based viability [11]: significant decrease | Tumor selectivity ([3]; non-tumor cells A5): 3.29 | Tumor selectivity ([3]; non-tumor cells MSC): 7.34 | level of Kdm3a [4]: reduced | Lrp5, MMP9, Runx2, TGFβ, and Snail [4]: downregulated | scratch-based migration [12]: inhibited | EdU-based proliferation [13]: reduced | Tumor selectivity ([5]; non-tumor cells A5): 3.11 | Tumor selectivity ([5]; non-tumor cells MSC): 6.94 | invasion [14]: inhibited | MTT-based viability of non-tumor cells [6]: elevated | expression of MMP9, Runx2, and Snail [15]: reduced | expression of p53 and TRAIL [15]: elevated | proliferation [16]: inhibited | TRANSWELL invasion [7]: reduced | Tumor selectivity ([8]; non-tumor cells A5): 1.48 | Tumor selectivity ([8]; non-tumor cells MSC): 3.30

B2: vinculin: vinculin recombinant protein (protein, UniProt Q64727 1-1066, looked up)
Vinculin: MPVFHTRTIESILEPVAQQISHLVIMHEEGEVDGKAIPDLTAPVAAVQAAVSNLVRVGKETVQTTEDQILKRDMPPAFIKVENACTKLVQAAQMLQSDPYSVPARDYLIDGSRGILSGTSDLLLTFDEAEVRKIIRVCKGILEYLTVAEVVETMEDLVTYTKNLGPGMTKMAKMIDERQQELTHQEHRVMLVNSMNTVKELLPVLISAMKIFVTTKNSKNQGIEEALKNRNFTVEKMSAEINEIIRVLQLTSWDEDAWASKDTEAMKRALASIDSKLNQAKGWLRDPNASPGDAGEQAIRQILDEAGKVGELCAGKERREILGTCKMLGQMTDQVADLRARGQGASPVAMQKAQQVSQGLDVLTAKVENAARKLEAMTNSKQSIAKKIDAAQNWLADPNGGPEGEEQIRGALAEARKIAELCDDPKERDDILRSLGEIAALTSKLGDLRRQGKGDSPEARALAKQVATALQNLQTKTNRAVANSRPAKAAVHLEGKIEQAQRWIDNPTVDDRGVGQAAIRGLVAEGHRLANVMMGPYRQDLLAKCDRVDQLTAQLADLAARGEGESPQARALASQLQDSLKDLKAQMQEAMTQEVSDVFSDTTTPIKLLAVAATAPPDAPNREEVFDERAANFENHSGRLGATAEKAAAVGTANKSTVEGIQASVKTARELTPQVISAARILLRNPGNQAAYEHFETMKNQWIDNVEKMTGLVDEAIDTKSLLDASEEAIKKDLDKCKVAMANIQPQMLVAGATSIARRANRILLVAKREVENSEDPKFREAVKAASDELSKTISPMVMDAKAVAGNISDPGLQKSFLDSGYRILGAVAKVREAFQPQEPDFPPPPPDLEQLRLTDELAPPKPPLPEGEVPPPRPPPPEEKDEEFPEQKAGEVINQPMMMAARQLHDEARKWSSKGNDIIAAAKRMALLMAEMSRLVRGGSGTKRALIQCAKDIAKASDEVTRLAKEVAKQCTDKRIRTNLLQVCERIPTISTQLKILSTVKATMLGRTNISDEESEQATEMLVHNAQNLMQSVKETVREAEAASIKIRTDAGFTLRWVRKTPWYQ
Tumor selectivity ([3]; non-tumor cells A5): 0.67 | Tumor selectivity ([3]; non-tumor cells Adipose): 1.27 | Tumor selectivity ([3]; non-tumor cells MSC): 0.89 | level of Kdm3a [4]: reduced | Lrp5, MMP9, Runx2, TGFβ, and Snail [4]: downregulated | EdU-based proliferation [13]: reduced | Tumor selectivity ([5]; non-tumor cells A5): 1.13 | Tumor selectivity ([5]; non-tumor cells Adipose): 1.88 | Tumor selectivity ([5]; non-tumor cells MSC): 1.43 | TRANSWELL invasion [7]: reduced | Tumor selectivity ([8]; non-tumor cells A5): 0.99 | Tumor selectivity ([8]; non-tumor cells Adipose): 1.43 | Tumor selectivity ([8]; non-tumor cells MSC): 1.57
